Results published in patent US20150351390A1, “COMPOSITIONS AND METHODS FOR AUXIN-ANALOG CONJUGATION” (PIONEER HI-BRED INTERNATIONAL, INC., priority 2012, published 2015).

B1: AtGH3-9: GH3 protein, accession O82243 (protein, listed as Arabidopsis thaliana)
chain: MDVMKLDHDSVLKELERITSKAAEVQDNILRGILERNKDTEYLSKYMNGSKDVLEFKRAVPIIIYKDIYPYIQRIANGEDSSLITGHSITEILCSSGTSAGEPKLMPTIPEDLDRRTFLYNLIIPIVNKYITGLDKGKAMYLNFVKAETSTPCGLPIRAVLTSYYKSKHFQCRPYDPFNDLTSPIQTILCEDSNQSMYCQLLAGLIHRHKVMRLGAVFASAFLRAISYLEKKWSQLCEDIRTGSLNPMITDPGCQMAMSCLLMSPNPELASEIEEICGRSSWKGILCQLWPKAKFIEAVVTGSMAQYIPALEFFSQGKIPLVCPMYASSETYFGVNVEPLSKPSDVVFTLLPNMCYFEFIPLGKNGTLSFDLDDDEQVPCDKVVDLVNVKLGRYYELVVTTFAGLYRYRIGDVLQVAGFYNGAPQFRFICRRNVVLSIDLDKTNEEDLHRSITLAKKKLGSNAFLAEYTSYADTSSVPGHYVLFWEIQGHLEPKLMEECCVAVEEELDYIYRQCRTKERSIGALEIRVVKPGTFEKLMDLIISQGGSFNQYKTPRCVKSNSATFKLLNGHVMASFFSPRDPTWVP
B2: SmXP_002983845: GH3 protein, accession XP_002983845 (protein, listed as Selaginella moellendorffii)
chain: MENEQLLLEKLESSSWSPGEAQDKVLAEILEKNAATDYFNRHGLRAATKEVFRQRAPVIEYEDIKDEINRIADGEAATLLCANPIADMFTSSGTSGGAHKLFPKVEGHYAVSKYFFDLATALLNRDLPGLRTGKALYFLYVRSGRKTPGGLPAYPALTGYYNSLEFRNRPFDPSNDYTSPLEVILCTDSVQASYCHLLCGLIHARDVTKLGCFFASVFVRSIRCLEAWWQELSRDIRTGTLSERVVDPACREAVEKILRPDPELANVIDEACSSGSLKGIVRKLWPSAKAIDTVVTGAMEQYVGEVDYLTDGLPIASMIYASSESFFGVNLKPLCEPSQISYMFLPETSYYEFLPVARSEEKASREEPVELVDVEQGHEYELVITTNAGLYRYRMGDVLRVEGFHNKAPLFSFVCRTNVLLSIDSDKTDEKELQTAVMNAFAALRNGVTSKEGEAIRLTDYTSYADLSSNPPHYVIYWELSSELHLEPEKAGECCYKMEESLSVVYHRGRMERSIGALELRLVTPGTFNRIADDAASRGGSVSQFKLPRCIKKNATRMLEIVESGVYQQYFSPRAPKY
B3: SmXP_002986992: GH3 protein, accession XP_002986992 (protein, listed as Selaginella moellendorffii)
chain: MEDFEAVCKNAVQAQEEALVQILQRNGSCHYLQRFGQPLCLKSFKTQLPIISYDNISPELQQIADHGTSHLLLGCDPILYFSFSSGTSSGKHKILPQTNCGYSLLARAYASSNAYRDEVFPLESTKPIGLHFVYSGEQYKAKSGLLLGAGSTNYYKSEAYNQEAETLATPYEALLAGSDWQQTTYCHLLCGLVQRHKIEFIHATFAYTLSEAFRLLESDWKILCEDISARRVSESKVTDEKLRVPVLKLMERELRGKDSSQVAREISEIFVTSKESRWSGLLPLLWPRAKYVHTVVTGAMEPYIPVLKKYAGDKLAIVGFDYSASEGYLGINMRPATPPEEVVFTLIPYTMFFEFIPVDPEEVPDHQQGETLGFKDLQVGKQYELVVTTFEGLYRYRIGDVVKVTGFHHESPIVAFSYRKNAVLSINAEKVDEQELQKVVMGSAGPLEIANFTSCADFATKERPHYVIYWELKNDGDNSRHEELRDSCNALDRGFNAAYLVGRVDKTLGALELVTVKQGTFEKLMEKAIESGASASQYKTPRCIKSPALLELLDQGAIGRYTSSEDISSLLAEDWKPSVIHGL
B4: OsGH3-7: GH3 protein, accession Q654M1 (protein, listed as Oryza sativa)
chain: MALLLPEFDPADVRAGRDLIHRLTADAAGIQRGVLREILSRNSGTEYLRRFLGGAAGDDDDVRDAFKRRVPVSGYEDVKPYVDRVASGGEPSSALLCSDPITCLSRSSGTSGGQQKLLPSTAEELDRKVFFYAVQALVRNMSLHTDHGEDDDGGGGEGMYLMFAFHGDRTLSGLPIQSALTTYYHSRQFQECDIGGFDKCTSPLEAILCPYGEQSMYCQLLCGLLHRCRVDRVGASFAAGLVRGIKFLENHWEEMCFNIRSGQLSDWITHTPLRDAVTGQYLQGSNPALADEIASECARKPWDGIVRRLWPRARYIRTIVTGSMSQYIPILEVYGGGLPLVSPIYASTECAAGINLRPLDPPSHVSYALLPNIAYFEFLEVMDENGEKVQGTTRLDDNLGEVKVVDLVDVKVGRCYELIVTTFAGLYRYRVGDLFTVSGFYNATPLFHFSGRHDVILSIDYEKISEEDLLNAIAETDKFHLRPLGYMLVGSTAYADISTLPGHYILFWELTNTCDSNVAIDIDQTAMEKCCLAVEDHFDEMYRKIRHRGSISALEIRILSHGAFDALMDFFVSRGTSASQYKTPTAIRSKEAMMVLEERVVGRFFSQATPSCRSAEFERR
B5: AIGH3-9: GH3 protein, accession EFH58389 (protein, listed as Arabidopsis lyrata)
chain: MDVMKLDYNYKGGNALTELERITSKAAEVQDNILCGILERNKDTEYLSKYMKGSKDVVEFKRSVPIITYKDIYPYIQRIANGEDSSLITGHPITEILCSSGTSAGEPKLMPTISEDLDRRTFLYNLIIPIVNKYIPGLDKGKAMYLNFVKAETSTPCGLPIRAVLTSYYKSKHFQCRPYDPFNDLTSPIQTILCEDSNQSMYCQLLAGLIHRHKVMRLGAVFASAFLRAISYLEKKWSQLCEDIRTGRLNPMITDPGCQIAMSCLLTSPDPELASEIEEICSRSSWKGILCHLWPRAKFIEAVVTGSMAQYIPALEFFGQGKIPLVCPMYASSETYFGVNVEPLSKPSDVVFTLLPNMCYFEFIPLGKNGALSFDLDDDEQVPCDKVVDLVNVKLGRYYELVVTTFAGLYRYRIGDVLQVAGFYNEAPQFRFICRRNVVLSIDLDKTNEEDLHRSITLAKKKLGSNAFLAEYTSYADTSSVPGHYVLFWEIQGHLEPKLMEGCCVAVEEELDYIYRQCRTKERSIGALEIRVVKPGTFEKLMDLIISQGGSFNQYKTPRCVKSNSATFKLLNGHVTASFFSPRDPTWVA

assay: LC-MS assay of GH3 conjugation of IAA with Asp or Glu; format: biochemical; settings: conjugation of IAA with Asp by recombinant GH3 protein; IAA-Asp product by LC-MS
Method: (§1) To detect and monitor the formation of acyl conjugates with 2,4-D or dicamba, a sensitive LC-MS method was developed using the respective amino acid conjugate standards. […] The reaction was performed at 30° C., 105 rpm, for 3 hours in buffer containing 20 mM Tris-HCl (pH 8.0), 5 mM MgCl2, 5 mM auxin (IAA, 2,4-D or dicamba), 5 mM ATP, 5 mM Asp or Glu, 1 mM DTT and 44 to 164 μg/mL purified GH3 protein in 100 μL reaction. After 3 hours of reaction, 400 μL 100% MeOH was added to the reaction mixture for protein precipitation. The supernatant was diluted 20× in water and then analyzed by LC-MS (AB Sciex 4000 QTrap coupled with Shimadzu Nexera UHPLC) using a Phenomenex Luna 3 μm Phenyl-Hexyl (00B-4256-Y0) column. The concentration of the conjugates was calculated based on the standards. Kinetic parameters were estimated by fitting initial velocity values to the Michaelis-Menten equation.
(§2) The GH3 superfamily conjugase activity analysis of IAA, 2,4-D or dicamba with Asp or Glu was done using LC-MS to analyze the final conjugate products as described in Example 1. Protein sequences of GH3 homologs (Table 3) were obtained from public databases (NCBI, http://www.ncbi.nlm.nih.gov/) by Blast analysis of AtGH3.17 protein sequence (accession # Q9FZ87). Coding sequences were designed for optimal expression in E. coli based on the protein sequences and synthesized. Synthesized coding sequences along with N-term his-tag coding sequences were cloned into a pET24a-based E. coli expression vector. The E. coli expression vectors were transformed into OverExpress C41(DE3) cells (Lucigen) for protein expression. Recombinant E. coli strains were inoculated into 5 ml LB media supplemented with 40 mg/L kanamycin and cultured overnight at 37° C. The overnight culture (0.5 mL) was inoculated into 50 mL LB medium plus 40 mg/L kanamycin and grown at 30° C. until OD600 reached 0.6. The cultures were induced with 0.2 mM IPTG at 16° C., 230 rpm overnight. Cells were harvested by centrifugation at 7,000 rpm for 10 mins. The cell pellet from 50 mL of cell culture was frozen and thawed twice and then lysed in 800 μL lysis buffer A (150 mM NaCl, 50 mM Tris-HCl pH 8.0, 5 mM MgCl2, 10% glycerol) plus 20 mM imidazole, 1 mM DTT, 0.2 mg/ml lysozyme, 1/200 protease inhibitor cocktail (EMD set3, EDTA free) and 1/2000 endonuclease. Lysate was then centrifuged at 13,000 rpm for 30 min at 4° C. Supernatant was loaded onto 200 μL Ni-NTA columns pre-equilibrated with buffer A with 20 mM imidazole at 4° C. Each column was then washed with (1) 2×800 μL of buffer A with 10 mM imidazole, (2) 2×800 μL of buffer A with 20 mM imidazole and (3) 2×200 μL of buffer A with 50 mM imidazole. Protein was eluted with 200 μL of buffer A with 250 mM imidazole. The concentration was measured by Bradford assay. Purified protein was used in conjugation reaction assays as described in example 1.

Molecule | kcat (hrs−1) IAA-Asp
B1 | 0.000 h⁻¹
B2 | 0.000 h⁻¹
B3 | 0.000 h⁻¹
B4 | 0.000 h⁻¹
B5 | 0.000 h⁻¹

same assay, conditions: conjugation of IAA with Glu by recombinant GH3 protein; IAA-Glu product by LC-MS

Molecule | kcat (hrs−1) IAA-Glu
B1 | 0.000 h⁻¹
B2 | 0.000 h⁻¹
B3 | 0.000 h⁻¹
B4 | 0.000 h⁻¹
B5 | 0.000 h⁻¹

same assay, conditions: result in words

Molecule | IAA conjugation activity with Asp or Glu
B1 | IAA-inactive
B2 | IAA-inactive
B3 | IAA-inactive
B4 | IAA-inactive
B5 | IAA-inactive

assay: LC-MS assay of GH3 conjugation of 2,4-D with Asp or Glu; format: biochemical; settings: conjugation of 2,4-D with Asp by recombinant GH3 protein; 2,4-D-Asp product by LC-MS; 5 mM 2,4-D substrate
Method: as §1, §2

Molecule | kcat (hrs−1) 2,4-D-Asp
B1 | 0.000 h⁻¹
B2 | 0.090 h⁻¹
B3 | 0.000 h⁻¹
B4 | 0.000 h⁻¹
B5 | 0.000 h⁻¹

same assay, conditions: conjugation of 2,4-D with Glu by recombinant GH3 protein; 2,4-D-Glu product by LC-MS; 5 mM 2,4-D substrate

Molecule | kcat (hrs−1) 2,4-D-Glu
B1 | 0.005 h⁻¹
B2 | 0.052 h⁻¹
B3 | 0.006 h⁻¹
B4 | 0.028 h⁻¹
B5 | 0.015 h⁻¹

same assay, conditions: result in words

Molecule | 2,4-D conjugation activity with Asp or Glu
B1 | 2,4-D conjugases
B2 | 2,4-D conjugases
B3 | 2,4-D conjugases
B4 | 2,4-D conjugases
B5 | 2,4-D conjugases
